{
  "source": "patent US20140087995A1",
  "about": "(published 2014)",
  "binders": {"B1": {"name": "N^-1-[(4S)-4-carboxy-4-(19-carboxynonadecanoylamino)butanoyl]-Gly[Arg1,Arg17,Pro21,Pro27,His35]-h-amylin (peptide)", "peptide": "{C20 diacid-γGlu}-GRCNTATCATQRLANFLRHSSPNFGAIPSSTNVGSHTY-NH2", "modifications": "disulfide 3-8", "SMILES": "CC[C@H](C)[C@H](NC(=O)[C@H](C)NC(=O)CNC(=O)[C@H](Cc1ccccc1)NC(=O)[C@H](CC(N)=O)NC(=O)[C@@H]1CCCN1C(=O)[C@H](CO)NC(=O)[C@H](CO)NC(=O)[C@H](Cc1c[nH]cn1)NC(=O)[C@H](CCCNC(=N)N)NC(=O)[C@H](CC(C)C)NC(=O)[C@H](Cc1ccccc1)NC(=O)[C@H](CC(N)=O)NC(=O)[C@H](C)NC(=O)[C@H](CC(C)C)NC(=O)[C@H](CCCNC(=N)N)NC(=O)[C@H](CCC(N)=O)NC(=O)[C@@H](NC(=O)[C@H](C)NC(=O)[C@@H]1CSSC[C@H](NC(=O)[C@H](CCCNC(=N)N)NC(=O)CNC(=O)CC[C@H](NC(=O)CCCCCCCCCCCCCCCCCCC(=O)O)C(=O)O)C(=O)N[C@@H](CC(N)=O)C(=O)N[C@@H]([C@@H](C)O)C(=O)N[C@@H](C)C(=O)N[C@@H]([C@@H](C)O)C(=O)N1)[C@@H](C)O)C(=O)N1CCC[C@H]1C(=O)N[C@@H](CO)C(=O)N[C@@H](CO)C(=O)N[C@H](C(=O)N[C@@H](CC(N)=O)C(=O)N[C@H](C(=O)NCC(=O)N[C@@H](CO)C(=O)N[C@@H](Cc1c[nH]cn1)C(=O)N[C@H](C(=O)N[C@@H](Cc1ccc(O)cc1)C(N)=O)[C@@H](C)O)C(C)C)[C@@H](C)O", "notes": "also called -1G, 1R, 17R, 21P, 27P, 35H"}, "B2": {"name": "N^-1-[(4S)-4-carboxy-4-(19-carboxynonadecanoylamino)butanoyl]-Gly[Arg1,His14,Arg17,Pro21,Pro27,Pro34]-h-amylin (peptide)", "peptide": "{C20 diacid-γGlu}-GRCNTATCATQRLAHFLRHSSPNFGAIPSSTNVGPNTY-NH2", "modifications": "disulfide 3-8", "SMILES": "CC[C@H](C)[C@H](NC(=O)[C@H](C)NC(=O)CNC(=O)[C@H](Cc1ccccc1)NC(=O)[C@H](CC(N)=O)NC(=O)[C@@H]1CCCN1C(=O)[C@H](CO)NC(=O)[C@H](CO)NC(=O)[C@H](Cc1c[nH]cn1)NC(=O)[C@H](CCCNC(=N)N)NC(=O)[C@H](CC(C)C)NC(=O)[C@H](Cc1ccccc1)NC(=O)[C@H](Cc1c[nH]cn1)NC(=O)[C@H](C)NC(=O)[C@H](CC(C)C)NC(=O)[C@H](CCCNC(=N)N)NC(=O)[C@H](CCC(N)=O)NC(=O)[C@@H](NC(=O)[C@H](C)NC(=O)[C@@H]1CSSC[C@H](NC(=O)[C@H](CCCNC(=N)N)NC(=O)CNC(=O)CC[C@H](NC(=O)CCCCCCCCCCCCCCCCCCC(=O)O)C(=O)O)C(=O)N[C@@H](CC(N)=O)C(=O)N[C@@H]([C@@H](C)O)C(=O)N[C@@H](C)C(=O)N[C@@H]([C@@H](C)O)C(=O)N1)[C@@H](C)O)C(=O)N1CCC[C@H]1C(=O)N[C@@H](CO)C(=O)N[C@@H](CO)C(=O)N[C@H](C(=O)N[C@@H](CC(N)=O)C(=O)N[C@H](C(=O)NCC(=O)N1CCC[C@H]1C(=O)N[C@@H](CC(N)=O)C(=O)N[C@H](C(=O)N[C@@H](Cc1ccc(O)cc1)C(N)=O)[C@@H](C)O)C(C)C)[C@@H](C)O", "notes": "also called -1G, 1R, 14H, 17R, 21P, 27P, 34P"}, "B3": {"name": "N^ε-[2-[2-[2-[[(4S)-4-carboxy-4-(19-carboxynonadecanoylamino)butanoyl]amino]ethoxy]ethoxy]acetyl]Lys[Arg1,Arg17,Pro21,Pro27,His35]-h-amylin (peptide)", "peptide": "K([AEEA-γGlu-C20 diacid])RCNTATCATQRLANFLRHSSPNFGAIPSSTNVGSHTY-NH2", "modifications": "disulfide 3-8; N-terminus assumed", "SMILES": "CC[C@H](C)[C@H](NC(=O)[C@H](C)NC(=O)CNC(=O)[C@H](Cc1ccccc1)NC(=O)[C@H](CC(N)=O)NC(=O)[C@@H]1CCCN1C(=O)[C@H](CO)NC(=O)[C@H](CO)NC(=O)[C@H](Cc1c[nH]cn1)NC(=O)[C@H](CCCNC(=N)N)NC(=O)[C@H](CC(C)C)NC(=O)[C@H](Cc1ccccc1)NC(=O)[C@H](CC(N)=O)NC(=O)[C@H](C)NC(=O)[C@H](CC(C)C)NC(=O)[C@H](CCCNC(=N)N)NC(=O)[C@H](CCC(N)=O)NC(=O)[C@@H](NC(=O)[C@H](C)NC(=O)[C@@H]1CSSC[C@H](NC(=O)[C@H](CCCNC(=N)N)NC(=O)[C@@H](N)CCCCNC(=O)COCCOCCNC(=O)CC[C@H](NC(=O)CCCCCCCCCCCCCCCCCCC(=O)O)C(=O)O)C(=O)N[C@@H](CC(N)=O)C(=O)N[C@@H]([C@@H](C)O)C(=O)N[C@@H](C)C(=O)N[C@@H]([C@@H](C)O)C(=O)N1)[C@@H](C)O)C(=O)N1CCC[C@H]1C(=O)N[C@@H](CO)C(=O)N[C@@H](CO)C(=O)N[C@H](C(=O)N[C@@H](CC(N)=O)C(=O)N[C@H](C(=O)NCC(=O)N[C@@H](CO)C(=O)N[C@@H](Cc1c[nH]cn1)C(=O)N[C@H](C(=O)N[C@@H](Cc1ccc(O)cc1)C(N)=O)[C@@H](C)O)C(C)C)[C@@H](C)O", "notes": "also called -1K, 1R, 17R, 21P, 27P, 35H"}, "B4": {"name": "N{-1}-[(4S)-4-carboxy-4-(19-carboxynonadecanoylamino)butanoyl]-Gly[Arg1,His14,Arg17,Pro21,Pro27]-h-amylin (peptide)", "peptide": "{C20 diacid-γGlu}-GRCNTATCATQRLAHFLRHSSPNFGAIPSSTNVGSNTY-NH2", "modifications": "disulfide 3-8", "SMILES": "CC[C@H](C)[C@H](NC(=O)[C@H](C)NC(=O)CNC(=O)[C@H](Cc1ccccc1)NC(=O)[C@H](CC(N)=O)NC(=O)[C@@H]1CCCN1C(=O)[C@H](CO)NC(=O)[C@H](CO)NC(=O)[C@H](Cc1c[nH]cn1)NC(=O)[C@H](CCCNC(=N)N)NC(=O)[C@H](CC(C)C)NC(=O)[C@H](Cc1ccccc1)NC(=O)[C@H](Cc1c[nH]cn1)NC(=O)[C@H](C)NC(=O)[C@H](CC(C)C)NC(=O)[C@H](CCCNC(=N)N)NC(=O)[C@H](CCC(N)=O)NC(=O)[C@@H](NC(=O)[C@H](C)NC(=O)[C@@H]1CSSC[C@H](NC(=O)[C@H](CCCNC(=N)N)NC(=O)CNC(=O)CC[C@H](NC(=O)CCCCCCCCCCCCCCCCCCC(=O)O)C(=O)O)C(=O)N[C@@H](CC(N)=O)C(=O)N[C@@H]([C@@H](C)O)C(=O)N[C@@H](C)C(=O)N[C@@H]([C@@H](C)O)C(=O)N1)[C@@H](C)O)C(=O)N1CCC[C@H]1C(=O)N[C@@H](CO)C(=O)N[C@@H](CO)C(=O)N[C@H](C(=O)N[C@@H](CC(N)=O)C(=O)N[C@H](C(=O)NCC(=O)N[C@@H](CO)C(=O)N[C@@H](CC(N)=O)C(=O)N[C@H](C(=O)N[C@@H](Cc1ccc(O)cc1)C(N)=O)[C@@H](C)O)C(C)C)[C@@H](C)O", "notes": "also called -1G, 1R, 14H, 17R, 21P, 27P"}, "B5": {"name": "N^ε-[(4S)-4-carboxy-4-(19-carboxynonadecanoylamino)butanoyl]Lys[Arg1,Arg17,Pro21,Pro27,His35]-h-amylin (peptide)", "peptide": "K([γGlu-C20 diacid])RCNTATCATQRLANFLRHSSPNFGAIPSSTNVGSHTY-NH2", "modifications": "disulfide 3-8; N-terminus assumed", "SMILES": "CC[C@H](C)[C@H](NC(=O)[C@H](C)NC(=O)CNC(=O)[C@H](Cc1ccccc1)NC(=O)[C@H](CC(N)=O)NC(=O)[C@@H]1CCCN1C(=O)[C@H](CO)NC(=O)[C@H](CO)NC(=O)[C@H](Cc1c[nH]cn1)NC(=O)[C@H](CCCNC(=N)N)NC(=O)[C@H](CC(C)C)NC(=O)[C@H](Cc1ccccc1)NC(=O)[C@H](CC(N)=O)NC(=O)[C@H](C)NC(=O)[C@H](CC(C)C)NC(=O)[C@H](CCCNC(=N)N)NC(=O)[C@H](CCC(N)=O)NC(=O)[C@@H](NC(=O)[C@H](C)NC(=O)[C@@H]1CSSC[C@H](NC(=O)[C@H](CCCNC(=N)N)NC(=O)[C@@H](N)CCCCNC(=O)CC[C@H](NC(=O)CCCCCCCCCCCCCCCCCCC(=O)O)C(=O)O)C(=O)N[C@@H](CC(N)=O)C(=O)N[C@@H]([C@@H](C)O)C(=O)N[C@@H](C)C(=O)N[C@@H]([C@@H](C)O)C(=O)N1)[C@@H](C)O)C(=O)N1CCC[C@H]1C(=O)N[C@@H](CO)C(=O)N[C@@H](CO)C(=O)N[C@H](C(=O)N[C@@H](CC(N)=O)C(=O)N[C@H](C(=O)NCC(=O)N[C@@H](CO)C(=O)N[C@@H](Cc1c[nH]cn1)C(=O)N[C@H](C(=O)N[C@@H](Cc1ccc(O)cc1)C(N)=O)[C@@H](C)O)C(C)C)[C@@H](C)O", "notes": "as for B3"}, "B6": {"name": "N^ε1-[(4S)-4-carboxy-4-(19-carboxynonadecanoylamino)butanoyl]-[Arg17,Pro21,Pro27]-h-amylin (peptide)", "peptide": "K([γGlu-C20 diacid])CNTATCATQRLANFLRHSSPNFGAIPSSTNVGSNTY-NH2", "modifications": "disulfide 2-7; N-terminus assumed", "SMILES": "CC[C@H](C)[C@H](NC(=O)[C@H](C)NC(=O)CNC(=O)[C@H](Cc1ccccc1)NC(=O)[C@H](CC(N)=O)NC(=O)[C@@H]1CCCN1C(=O)[C@H](CO)NC(=O)[C@H](CO)NC(=O)[C@H](Cc1c[nH]cn1)NC(=O)[C@H](CCCNC(=N)N)NC(=O)[C@H](CC(C)C)NC(=O)[C@H](Cc1ccccc1)NC(=O)[C@H](CC(N)=O)NC(=O)[C@H](C)NC(=O)[C@H](CC(C)C)NC(=O)[C@H](CCCNC(=N)N)NC(=O)[C@H](CCC(N)=O)NC(=O)[C@@H](NC(=O)[C@H](C)NC(=O)[C@@H]1CSSC[C@H](NC(=O)[C@@H](N)CCCCNC(=O)CC[C@H](NC(=O)CCCCCCCCCCCCCCCCCCC(=O)O)C(=O)O)C(=O)N[C@@H](CC(N)=O)C(=O)N[C@@H]([C@@H](C)O)C(=O)N[C@@H](C)C(=O)N[C@@H]([C@@H](C)O)C(=O)N1)[C@@H](C)O)C(=O)N1CCC[C@H]1C(=O)N[C@@H](CO)C(=O)N[C@@H](CO)C(=O)N[C@H](C(=O)N[C@@H](CC(N)=O)C(=O)N[C@H](C(=O)NCC(=O)N[C@@H](CO)C(=O)N[C@@H](CC(N)=O)C(=O)N[C@H](C(=O)N[C@@H](Cc1ccc(O)cc1)C(N)=O)[C@@H](C)O)C(C)C)[C@@H](C)O", "notes": "also called 17R, 21P, 27P"}},
  "note": "Numbered stars: 1 amine (or outer) side, 2 acyl side, 3 side chain; on linkers, the order of the positions; unused ones are H or OH. Bridge positions count the residues as written; N and C are the ends. Side chains are listed from the residue outwards. Ends that are not written are not given here. * marks the point of attachment. C20 diacid = O=C(O)CCCCCCCCCCCCCCCCCCC(=O)*; γGlu = O=C(O)[C@H](CCC(=O)[*:2])N[*:1]; AEEA = NCCOCCOCC(=O)O",
  "data": [
    {"target": "T1, human amylin receptor (human, UniProt P30988 25-474; O60896 24-148, limits assumed)", "T1 construct": "whole, on cells; Calcitonin receptor plus RAMP-3 gives the amylin 3(a) receptor; membranes of Amylin 3(a)/CRE-luc cells were used; also called hAmylin-R; hAmylinR", "T1 sequence (looked up) 1": "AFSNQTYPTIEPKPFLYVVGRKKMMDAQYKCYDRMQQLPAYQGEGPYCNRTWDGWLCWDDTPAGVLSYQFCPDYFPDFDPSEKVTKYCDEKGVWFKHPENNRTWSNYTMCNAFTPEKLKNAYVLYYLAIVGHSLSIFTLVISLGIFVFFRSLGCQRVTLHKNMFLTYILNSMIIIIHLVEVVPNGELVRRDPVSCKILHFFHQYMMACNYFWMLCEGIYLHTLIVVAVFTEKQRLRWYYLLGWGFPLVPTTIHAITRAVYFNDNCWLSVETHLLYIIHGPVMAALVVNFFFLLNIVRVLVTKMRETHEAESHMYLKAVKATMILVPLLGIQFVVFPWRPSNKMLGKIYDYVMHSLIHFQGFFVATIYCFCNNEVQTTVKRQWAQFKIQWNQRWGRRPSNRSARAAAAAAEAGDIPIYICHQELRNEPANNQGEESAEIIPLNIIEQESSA", "T1 sequence (looked up) 2": "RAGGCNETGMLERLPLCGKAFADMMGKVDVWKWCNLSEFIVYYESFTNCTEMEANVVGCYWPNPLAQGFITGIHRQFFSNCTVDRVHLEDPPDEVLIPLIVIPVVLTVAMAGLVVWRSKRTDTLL", "assay": "SPA competition binding, displacement of 125I-rat amylin from membranes with human amylin 3(a) receptor (Assay V)", "procedure,_shortened": "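Membranes from BHK Amylin 3(a)/CRE-luc cells (35 ng/μL final) were mixed with SPA beads and test compounds in 50 mM Hepes pH 7.4 with 1 mM CaCl2, 5 mM MgCl₂, 0.1% OA and 0.02% Tween20. Incubation ran 120 min at 25° C with shaking; IC₅₀ came from one-site competition fitting.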", "units": {"IC50": "nM"}, "values": [
      {"binder": "B1", "IC50": 0.344},
      {"binder": "B2", "IC50": 0.217},
      {"binder": "B3", "IC50": 0.552},
      {"binder": "B4", "IC50": 0.348},
      {"binder": "B5", "IC50": 0.275},
      {"binder": "B6", "IC50": 0.443}
    ]}
  ]
}
